Columns and labels:
[1] = target: T1, complement C8 alpha chain (human, UniProt P07357 31-584, N-linked glycan at N407); assay: cryo-EM structure; human MAC assembled on DOPC:DOPE liposomes by sequential addition of C5b6, C7, C8 and C9 (molar ratio 1:1:1:18, 1 h at 37 °C, then 4 °C overnight; 20 mM HEPES-NaOH, 150 mM NaCl, pH 7.4), solubilised in Cymal-5, purified by sucrose density centrifugation; open and closed conformations separated by 3D classification; conditions: both partners purified
T1 construct: complement component C8 alpha chain, human; It stood in the assay as one chain of the bought C8 heterotrimer (α, β, γ); also called C8α; source: bought: Complement Technology (as C8)

complement C6 = target: T2, complement C6 (human, UniProt P13671 22-934); assay: as above; conditions: both partners purified
T2 construct: complement component C6, human; 10 domains (TSP1, TSP2, LDL, MACPF, EGF, TSP3, CCP1, CCP2, FIM1, FIM2); It stood in the assay as part of the bought C5b6 complex; FIM1 and FIM2 were left out of the atomic model (weak or no density); source: bought: Complement Technology (as the C5b6 complex)
T2 sequence (P13671 22-934): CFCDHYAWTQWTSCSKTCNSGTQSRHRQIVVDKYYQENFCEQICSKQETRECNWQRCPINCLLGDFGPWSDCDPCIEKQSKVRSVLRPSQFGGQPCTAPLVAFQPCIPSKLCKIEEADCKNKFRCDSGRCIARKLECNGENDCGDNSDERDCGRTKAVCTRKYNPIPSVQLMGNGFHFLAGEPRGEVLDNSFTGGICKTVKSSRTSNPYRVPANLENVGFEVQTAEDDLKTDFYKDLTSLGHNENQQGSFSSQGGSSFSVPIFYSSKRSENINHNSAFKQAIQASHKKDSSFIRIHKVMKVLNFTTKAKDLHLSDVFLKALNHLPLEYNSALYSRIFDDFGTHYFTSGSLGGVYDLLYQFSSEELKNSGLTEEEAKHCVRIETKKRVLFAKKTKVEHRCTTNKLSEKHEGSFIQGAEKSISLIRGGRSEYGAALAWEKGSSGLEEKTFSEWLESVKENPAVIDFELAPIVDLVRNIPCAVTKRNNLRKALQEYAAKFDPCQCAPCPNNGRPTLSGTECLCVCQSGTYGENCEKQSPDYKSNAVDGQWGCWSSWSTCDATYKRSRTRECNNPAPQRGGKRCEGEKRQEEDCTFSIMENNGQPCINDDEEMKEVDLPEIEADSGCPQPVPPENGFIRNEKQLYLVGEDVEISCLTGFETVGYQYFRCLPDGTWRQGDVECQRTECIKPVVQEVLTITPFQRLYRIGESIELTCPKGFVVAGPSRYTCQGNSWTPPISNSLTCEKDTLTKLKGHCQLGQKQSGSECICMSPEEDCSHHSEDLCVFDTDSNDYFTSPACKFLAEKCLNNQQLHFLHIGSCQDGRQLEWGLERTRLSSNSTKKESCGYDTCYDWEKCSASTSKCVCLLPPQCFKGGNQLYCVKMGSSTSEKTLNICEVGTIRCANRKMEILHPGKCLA

T1 sequence (P07357 31-584): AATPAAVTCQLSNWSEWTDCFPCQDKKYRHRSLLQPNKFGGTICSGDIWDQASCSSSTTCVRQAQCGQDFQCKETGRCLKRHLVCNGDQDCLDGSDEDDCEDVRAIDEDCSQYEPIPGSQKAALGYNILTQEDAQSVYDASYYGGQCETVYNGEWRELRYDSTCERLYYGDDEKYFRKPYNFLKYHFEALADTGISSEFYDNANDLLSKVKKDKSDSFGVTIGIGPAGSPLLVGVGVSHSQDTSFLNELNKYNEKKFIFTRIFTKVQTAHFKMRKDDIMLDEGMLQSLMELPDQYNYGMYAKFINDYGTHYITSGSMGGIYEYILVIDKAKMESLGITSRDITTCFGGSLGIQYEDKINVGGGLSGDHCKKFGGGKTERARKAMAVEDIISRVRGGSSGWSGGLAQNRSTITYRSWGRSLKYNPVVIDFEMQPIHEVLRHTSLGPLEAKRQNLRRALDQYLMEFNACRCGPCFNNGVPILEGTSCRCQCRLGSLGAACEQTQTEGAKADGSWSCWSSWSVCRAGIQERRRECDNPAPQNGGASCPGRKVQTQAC

B1: complement C9 (natural protein)
chain: not shown
modifications: N-linked glycans at N215, N256, N394; O-linked glycan at T427
notes: complement component C9, human; The model began from a homology model with C8β as template; source: bought: Complement Technology
B1: binds [1]; binds (complement C6).

Source: article PMC6294249, “CryoEM reveals how the complement membrane attack complex ruptures lipid bilayers” (Nature Communications, 2018)
